Experiments:
[1] = in vitro fusion of GFP-LC3 and LAMP2B-mCherry vesicles; settings: glycan gained; control: non-O-GlcNAcylated His-GRASP55
[2] = LC3-LAMP2 co-IP with added recombinant GRASP55; settings: glycan gained; control: non-O-GlcNAcylated His-GRASP55 (coexpressed with GST)

Substance	other: autophagosome-lysosome fusion activity [1]	other: bridging of LC3-LAMP2 interaction [2]
GRASP55: O-GlcNAcylated His-GRASP55	decreases	
GRASP55: O-GlcNAcylated His-GRASP55 (coexpressed with GST-OGT)		decreases
